A value given as a limit tells only on which side of the number the result lay.

Consider eight sequences from the Immune Epitope Database (IEDB).

In test [1] the target is HLA-A*02:01. Kind of test: IEDB peptide-MHC binding, purified MHC/competitive/fluorescence; filed as Kd, often an IC50 or EC50 that approximates it; ≥ and ≤ were set here for values at or beyond the usual limits of such assays. The note with it: source organism: Homo sapiens.
Test [2] concerns the target HLA-A*02:12. Described as above. The note with it: source organism: Homo sapiens.
The target of test [3] is HLA-A*02:19. The description is as above. The note with it: source organism: Homo sapiens.
For test [4], the target named is HLA-A*03:01. The test is described as above. To be noted: source organism: Homo sapiens.
The target of test [5] is HLA-A*26:01. The test is described as above. The note with it: source organism: Homo sapiens.
In test [6] the target is HLA-A*68:02. Described as above. To be noted: source organism: Homo sapiens.
Test [7] concerns the target HLA-A*69:01. The test is described as above. To be noted: source organism: Homo sapiens.
Test [8] concerns the target HLA-B*15:01. Described as above. To be noted: source organism: Homo sapiens.
Test [9] has as its target HLA-B*15:17. The test is described as above. The note with it: source organism: Homo sapiens.
Test [10] concerns the target HLA-B*18:01. The test is described as above. The note with it: source organism: Homo sapiens.
Test [11] has as its target HLA-B*27:03. Described as above. To be noted: source organism: Homo sapiens.
In test [12] the target is HLA-B*39:01. The test is described as above. To be noted: source organism: Homo sapiens.
In test [13] the target is HLA-B*46:01. Described as above. The note with it: source organism: Homo sapiens.
The target of test [14] is HLA-B*51:01. Described as above. To be noted: source organism: Homo sapiens.
In test [15] the target is HLA-B*57:01. Described as above. The note with it: source organism: Homo sapiens.
The target of test [16] is HLA-A*01:01. Kind of test: IEDB peptide-MHC binding, purified MHC/direct/fluorescence; filed as Kd, often an IC50 or EC50 that approximates it; ≥ and ≤ were set here for values at or beyond the usual limits of such assays.
The target in test [17] is HLA-A*02:01. Described as above.
For test [18], the target named is HLA-A*03:01. The test is described as above.
Test [19] deals with HLA-A*11:01. Described as above.
The target in test [20] is HLA-A*24:03. The description is as above.
In test [21] the target is HLA-A*26:01. The description is as above.
For test [22], the target named is HLA-A*30:01. The test is described as above.
Test [23] concerns the target HLA-A*31:01. Described as above.
In test [24] the target is HLA-A*69:01. Described as above.
Test [25] addresses HLA-B*07:02. Described as above.
Test [26] deals with HLA-B*08:01. Described as above.
Test [27] deals with HLA-B*15:01. Described as above.
Test [28] concerns the target HLA-B*27:05. The description is as above.
In test [29] the target is HLA-B*40:01. The description is as above.
In test [30] the target is HLA-B*58:01. The test is described as above.
In test [31] the target is HLA-B*35:01. The description is as above. The note with it: source organism: Escherichia coli O6.
Test [32] addresses HLA-B*44:02. Described as above.
In test [33] the target is HLA-B*51:01. Described as above. The note with it: source organism: Dengue virus.
Test [34] addresses HLA-B*53:01. Kind of test: IEDB peptide-MHC binding, purified MHC/competitive/radioactivity; filed as Kd, often an IC50 or EC50 that approximates it; ≥ and ≤ were set here for values at or beyond the usual limits of such assays. The note with it: source organism: Dengue virus 1 Brazil/97-11/1997.
[35] abbreviates: source organism: Pseudomonas aeruginosa.
Where [36] appears, read: source organism: Escherichia coli O6.
Setting [37] is: source organism: Corynebacterium efficiens.
The mark [38] stands for this setting: source organism: Corynebacterium glutamicum.
Where [39] appears, read: source organism: Vibrio cholerae.
Setting [40] is: source organism: Haemophilus influenzae.
Setting [41] is: source organism: Shigella flexneri.

What is called Kd is the constant that tells how readily two partners part at equilibrium. Consider SLFNWLWYE, for which the dissociation constant Kd was 196 nM in test [1]; at least 20 µM in test [2]; at least 20 µM in [3]; at least 20 µM in test [4]; at least 20 µM in [5]; at least 20 µM in test [6]. Moreover, the Kd in test [7], in test [8], in [9], in [10], in test [11] and in [12] was at least 20 µM in each case. The Kd in [13], in test [14] and in test [15] was at least 20 µM throughout.

RSFAERLDR: the Kd in [16] (setting [35]) was at least 20 µM; in test [17] (setting [35]) it was at least 20 µM; in test [18] (setting [35]), 286 nM; in [19] (setting [35]), 117 nM; in [20] (setting [35]), at least 20 µM; in test [21] (setting [35]), at least 20 µM. Besides, the Kd in [22] (setting [35]) is 344 nM; in test [23] (setting [35]), 28.7 nM; in test [24] (setting [35]), at least 20 µM; in test [25] (setting [35]), at least 20 µM; in test [26] (setting [35]) it was at least 20 µM; in test [27] (setting [35]), at least 20 µM. Also, the Kd is 3.46 µM in test [28] (setting [35]), at least 20 µM in [29] (setting [35]) and at least 20 µM in [30] (setting [35]).

Regarding TPVWHVTSA, the Kd in [16] (setting [36]) was at least 20 µM; in test [17] (setting [36]), at least 20 µM; in test [18] (setting [36]), at least 20000 nM; in test [19] (setting [36]), at least 20000 nM; in test [20] (setting [36]) it was at least 20 µM; in test [21] (setting [36]), at least 20 µM. Further, the Kd in test [23] (setting [36]) was at least 20000 nM; in test [24] (setting [36]) it was at least 20 µM; in test [25] (setting [36]) it was 0.0181 µM; in [26] (setting [36]) it was at least 20 µM; in [27] (setting [36]), at least 20 µM; in test [28] (setting [36]) it was at least 20 µM. For the same sequence, the figures for the Kd in [31], in [29] (setting [36]) and in [30] (setting [36]) were 20.9 nM, at least 20 µM and at least 20 µM, respectively.

For the sequence KLGDQFGRK, the Kd was at least 20 µM in test [16] (setting [37]); at least 20 µM in test [17] (setting [37]); 242 nM in test [18] (setting [38]); 70 nM in test [19] (setting [38]); at least 20 µM in [20] (setting [37]); at least 20 µM in test [21] (setting [37]). The Kd in [22] (setting [38]) was 1490 nM; in test [23] (setting [38]) it was 4370 nM; in test [24] (setting [37]), at least 20 µM; in test [25] (setting [37]), at least 20 µM; in test [26] (setting [37]), at least 20 µM; in test [27] (setting [37]), at least 20 µM. For the same sequence, the dissociation constant Kd in test [28] (setting [37]), in test [29] (setting [37]) and in test [30] (setting [37]) was at least 20 µM each time.

In the case of RPRIRLSAP, the dissociation constant (Kd) in test [16] (setting [39]) is at least 20 µM; in [17] (setting [39]), at least 20 µM; in [18] (setting [39]) it was at least 20000 nM; in test [19] (setting [39]), at least 20000 nM; in test [20] (setting [39]), at least 20 µM; in test [21] (setting [39]), at least 20 µM. Also, the Kd is 3780 nM in [22] (setting [39]); at least 20000 nM in [23] (setting [39]); at least 20 µM in [24] (setting [39]); 0.0278 µM in test [25] (setting [39]); 1.89 µM in test [26] (setting [39]); at least 20 µM in test [27] (setting [39]). In addition, the Kd in test [28] (setting [39]), in test [29] (setting [39]), in test [32] (setting [39]) and in test [30] (setting [39]) was at least 20 µM each time.

For the sequence CPTQGEATL, the Kd in test [33] was at least 20 µM; in test [34], 19.9 nM.

On to MTMRRRLFK, for which the Kd in [16] (setting [40]) was 14.5 µM; in test [17] (setting [40]), at least 20 µM; in test [18] (setting [40]), 53.1 nM; in test [19] (setting [40]), 14.2 nM; in [20] (setting [40]) it was at least 20 µM; in [21] (setting [40]) it was at least 20 µM. Further, the Kd in test [22] (setting [40]) was 0.63 nM; in [23] (setting [40]), 20.2 nM; in [24] (setting [40]), at least 20 µM; in test [25] (setting [40]) it was at least 20 µM; in test [26] (setting [40]), 5.63 µM; in test [27] (setting [40]), at least 20 µM. The Kd in test [28] (setting [40]) and in [29] (setting [40]) was at least 20 µM in each case.

As to KTTLFHTFK, the Kd was at least 20 µM in test [16] (setting [41]); at least 20 µM in test [17] (setting [41]); 122 nM in test [18] (setting [36]); 16.2 nM in [19] (setting [36]); at least 20 µM in [20] (setting [41]); at least 20 µM in [21] (setting [41]). Besides, the Kd in test [22] (setting [36]) was 6.09 nM; in test [23] (setting [36]), 30.4 nM; in test [24] (setting [41]) it was at least 20 µM; in [25] (setting [41]), at least 20 µM; in test [26] (setting [41]), at least 20 µM; in [27] (setting [41]) it was at least 20 µM. Moreover, the equilibrium dissociation constant (Kd) in test [28] (setting [41]) is at least 20 µM; in test [29] (setting [41]) it was at least 20 µM; in [32] (setting [41]), at least 20 µM; in test [30] (setting [36]) it was 9.38 µM.
